Data reported in patent US10689452 (UNIVERSIT T STUTTGART, dated 2020).
Where a chain is given by its changes, count along the chain named.

T1: human TNFR1-Fc fusion protein (human, UniProt P19438 29-211)
T1 construct: range 29-211; Made in stably transfected HEK293 cells; coated on ELISA plates or immobilised on QCM chips; also called huTNFR1-Fc; human TNFR-Fc; not shown: Fc part from vector pSecTagL1-Fc
T1 sequence (looked up): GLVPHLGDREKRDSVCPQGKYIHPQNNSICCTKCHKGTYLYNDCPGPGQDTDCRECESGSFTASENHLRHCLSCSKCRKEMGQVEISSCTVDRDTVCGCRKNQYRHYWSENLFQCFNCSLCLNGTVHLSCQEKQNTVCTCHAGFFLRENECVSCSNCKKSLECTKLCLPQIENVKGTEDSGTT

T2: human TNFR1 on cells (HT1080, HeLa, Kym-1) (human, UniProt P19438 30-455)
T2 sequence (looked up): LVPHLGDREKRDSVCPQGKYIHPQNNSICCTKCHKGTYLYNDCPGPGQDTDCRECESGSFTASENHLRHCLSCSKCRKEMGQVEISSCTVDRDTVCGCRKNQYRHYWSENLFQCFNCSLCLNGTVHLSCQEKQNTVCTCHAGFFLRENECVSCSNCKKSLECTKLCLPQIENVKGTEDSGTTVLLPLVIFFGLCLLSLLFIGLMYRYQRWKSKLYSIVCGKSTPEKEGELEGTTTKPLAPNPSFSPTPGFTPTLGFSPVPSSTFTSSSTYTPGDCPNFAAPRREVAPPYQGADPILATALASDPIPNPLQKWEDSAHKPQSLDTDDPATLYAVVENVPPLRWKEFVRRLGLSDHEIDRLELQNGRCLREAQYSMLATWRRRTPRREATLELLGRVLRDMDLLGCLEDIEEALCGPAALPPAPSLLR

B1: scFvFRK13.7 (scFv, V domains shown)
VH: HVQLVQSGAEVKKPGSSVKVSCKASGYTFTDFYINWVRQAPGQGLEWIGEIVPSQGEAKYNDKFKARVTITADKSTSTAYMELSSLRSEDTAVYYCARWDFLDYWGQGTTVTVSS
VL: DVQMTQSPSSLSASVGDRVTITCRSSQSLLHSNGNTYLHWYQQKPGKAPKLLIYTVSNRFSGVPSRFSGSGSGTDFTLTISSLQPEDFATYYCSQSTHVPYTFGGGTKVEIK
B2: scFvFRK13.5 (scFv, V domains shown)
VH: B1 VH
VL: B1 VL with V2I
notes: also called scFvFKR13.5
B3: Fab13.7-Fckih0DS (Fc fusion)
chain 1: HVQLVQSGAEVKKPGSSVKVSCKASGYTFTDFYINWVRQAPGQGLEWIGEIVPSQGEAKYNDKFKARVTITADKSTSTAYMELSSLRSEDTAVYYCARWDFLDYWGQGTTVTVSSASTKGPSVFPLAPSSKSTSGGTAALGCLVKDYFPEPVTVSWNSGALTSGVHTFPAVLQSSGLYSLSSVVTVPSSSLGTQTYICNVNHKPSNTKVDKKVEPKSCGTDKTHTSPPSPAPPVAGPSVFLFPPKPKDTLMISRTPEVTCVVVDVSHEDPEVKFNWYVDGVEVHNAKTKPREEQYNSTYRVVSVLTVLHQDWLNGKEYKCKVSNKGLPSSIEKTISKAKGQPREPQVYTLPPSRDELTKNQVSLSCAVKGFYPSDIAVEWESNGQPENNYKTTPPVLDSDGSFFLVSKLTVDKSRWQQGNVFSCSVMHEALHNHYTQKSLSLSPGK
chain 2: DVQMTQSPSSLSASVGDRVTITCRSSQSLLHSNGNTYLHWYQQKPGKAPKLLIYTVSNRFSGVPSRFSGSGSGTDFTLTISSLQPEDFATYYCSQSTHVPYTFGGGTKVEIKRTVAAPSVFIFPPSDEQLKSGTASVVCLLNNFYPREAKVQWKVDNALQSGNSQESVTEQDSKDSTYSLSSTLTLSKADYEKHKVYACEVTHQGLSSPVTKSFNRGECGTDKTHTSPPSPAPPVAGPSVFLFPPKPKDTLMISRTPEVTCVVVDVSHEDPEVKFNWYVDGVEVHNAKTKPREEQYNSTYRVVSVLTVLHQDWLNGKEYKCKVSNKGLPSSIEKTISKAKGQPREPQVYTLPPSRDELTKNQVSLWCLVKGFYPSDIAVEWESNGQPENNYKTTPPVLDSDGSFFLYSKLTVDKSRWQQGNVFSCSVMHEALHNHYTQKSLSLSPGK
notes: knobs-into-holes heterodimer, FcgammaR-silenced, no hinge disulfides; also called monovalent Fab13.7-Fc fusion protein
B4: Fab13.7-MSA (Fab)
heavy: HVQLVQSGAEVKKPGSSVKVSCKASGYTFTDFYINWVRQAPGQGLEWIGEIVPSQGEAKYNDKFKARVTITADKSTSTAYMELSSLRSEDTAVYYCARWDFLDYWGQGTTVTVSSASTKGPSVFPLAPSSKSTSGGTAALGCLVKDYFPEPVTVSWNSGALTSGVHTFPAVLQSSGLYSLSSVVTVPSSSLGTQTYICNVNHKPSNTKVDKKVEPKSCGGGGSGGGGSSLEAHKSEIAHRYNDLGEQHFKGLVLIAFSQYLQKCSYDEHAKLVQEVTDFAKTCVADESAANCDKSLHTLFGDKLCAIPNLRENYGELADCCTKQEPERNECFLQHKDDNPSLPPFERPEAEAMCTSFKENPTTFMGHYLHEVARRHPYFYAPELLYYAEQYNEILTQCCAEADKESCLTPKLDGVKEKALVSSVRQRMKCSSMQKFGERAFKAWAVARLSQTFPNADFAEITKLATDLTKVNKECCHGDLLECADDRAELAKYMCENQATISSKLQTCCDKPLLKKAHCLSEVEHDTMPADLPAIAADFVEDQEVCKNYAEAKDVFLGTFLYEYSRRHPDYSVSLLLRLAKKYEATLEKCCAEANPPACYGTVLAEFQPLVEEPKNLVKTNCDLYEKLGEYGFQNAILVRYTQKAPQVSTPTLVEAARNLGRVGTKCCTLPEDQRLPCVEDYLSAILNRVCLLHEKTPVSEHVTKCCSGSLVERRPCFSALTVDETYVPKEFKAETFTFHSDICTLPEKEKQIKKQTALAELVKHKPKATAEQLKTVMDDFAQFLDTCCKAADKDTCFSTEGPNLVGGAAAHHHHHH
light: DVQMTQSPSSLSASVGDRVTITCRSSQSLLHSNGNTYLHWYQQKPGKAPKLLIYTVSNRFSGVPSRFSGSGSGTDFTLTISSLQPEDFATYYCSQSTHVPYTFGGGTKVEIKRTVAAPSVFIFPPSDEQLKSGTASVVCLLNNFYPREAKVQWKVDNALQSGNSQESVTEQDSKDSTYSLSSTLTLSKADYEKHKVYACEVTHQGLSSPVTKSFNRGEC
notes: also called Fab13.7 MSA fusion protein
B5: Fab13.7PEG (Fab, V domains shown)
VH: B1 VH
VL: DVQMTQSPSSLSASVGDRVTITCRSSQSLLHSNGNTYLHWYQQKPGKAPKLLIYTVSNRFSGVPSRFSGSGSGTDFTLTISSLQPEDFATYYCSQSTHVPYTFGGGTKVEIKR
modifications: PEG (printed 'PEG400.000' in paragraph 589; methoxy-PEG 40 kDa maleimide in paragraph 649) conjugated to the newly introduced cysteine of the C-terminal ...DKTHTCAA (SEQ ID 34)
notes: also called PEGylated Fab13.7'; PEGylated derivative of Fab13.7
B6: Fv13.7-Fckih0DS (Fc fusion)
chain 1: HVQLVQSGAEVKKPGSSVKVSCKASGYTFTDFYINWVRQAPGQGLEWIGEIVPSQGEAKYNDKFKARVTITADKSTSTAYMELSSLRSEDTAVYYCARWDFLDYWGQGTTVTVSSGTDKTHTSPPSPAPPVAGPSVFLFPPKPKDTLMISRTPEVTCVVVDVSHEDPEVKFNWYVDGVEVHNAKTKPREEQYNSTYRVVSVLTVLHQDWLNGKEYKCKVSNKGLPSSIEKTISKAKGQPREPQVYTLPPSRDELTKNQVSLSCAVKGFYPSDIAVEWESNGQPENNYKTTPPVLDSDGSFFLVSKLTVDKSRWQQGNVFSCSVMHEALHNHYTQKSLSLSPGK
chain 2: DVQMTQSPSSLSASVGDRVTITCRSSQSLLHSNGNTYLHWYQQKPGKAPKLLIYTVSNRFSGVPSRFSGSGSGTDFTLTISSLQPEDFATYYCSQSTHVPYTFGGGTKVEIKGTDKTHTSPPSPAPPVAGPSVFLFPPKPKDTLMISRTPEVTCVVVDVSHEDPEVKFNWYVDGVEVHNAKTKPREEQYNSTYRVVSVLTVLHQDWLNGKEYKCKVSNKGLPSSIEKTISKAKGQPREPQVYTLPPSRDELTKNQVSLWCLVKGFYPSDIAVEWESNGQPENNYKTTPPVLDSDGSFFLYSKLTVDKSRWQQGNVFSCSVMHEALHNHYTQKSLSLSPGK
notes: also called monovalent Fv13.7-Fc fusion protein
B7: scFvFRK13.8 (scFv, V domains shown)
VH: QVQLVESGGGLVKPGGSLRLSCAASGFTFSDFYINWIRQAPGKGLEWVSEIYPYSGHAYYNEKFKARFTISADNAKNSLYLQMNSLRAEDTAVYYCARWDFLDYWGQGTTVTVSS
VL: DIVMTQSPLSLPVTPGEPASISCRSSQSLLHSNGNTYLHWYLQKPGQSPQLLIYTVSNRFSGVPDRFSGSGSGTDFTLKISRVEAEDVGVYYCSQGTHVPYTFGGGTKVEIK
B8: scFvFRK13.1 (scFv, V domains shown)
VH: B7 VH with A72R
VL: B1 VL with V2I
B9: scFvFRK13.4 (scFv, V domains shown)
VH: B7 VH
VL: B1 VL with V2I
B10: scFvFRK13.3 (scFv, V domains shown)
VH: B7 VH with A72R
VL: B1 VL

Each binder was assayed against T1, human TNFR1-Fc fusion protein (assay: ELISA, human TNFR1-Fc).

Row | Binder | EC50
1 | B1 | 1.09 nM
2 | B2 | 1.06 nM

What follows are binders tested against T2, human TNFR1 on cells (HT1080, HeLa, …) (assay: cell-based or functional assay).

Row | Binder | IL-8 Inhibition IC50 [nM] (HT1080 cells, 0.1 nM soluble TNF)
3 | B3 | 61.2 nM
4 | B4 | 65.5 nM
5 | B5 | 98.2 nM
6 | B6 | 30.7 nM

These binders were tested against T1, human TNFR1-Fc fusion protein (assay: ELISA, immobilised human TNFR1-Fc).

Row | Binder | EC50
7 | B3 | 0.5 nM
8 | B4 | 0.7 nM
9 | B5 | 5 nM
10 | B6 | 0.3 nM

Biological target: T2, human TNFR1 on cells (HT1080, HeLa, …)
Assay: cell-based or functional assay
Remark: another data set of the same source

Row | Binder | IC50 (nM), inhibition of TNF-induced IL-8 release from HT1080 cells
11 | B1 | 284 nM
12 | B2 | 367 nM

Biological target: T2, human TNFR1 on cells (HT1080, HeLa, …)
Assay: cell-based or functional assay
Remark: another data set of the same source

Row | Binder | fold higher IC50 (IL-8 release inhibition) compared to Fab13.7
13 | B3 | 2.3 fold
14 | B4 | 1.9 fold
15 | B5 | 4.9 fold

Biological target: T1, human TNFR1-Fc fusion protein
Assay: ELISA, immobilised human TNFR1-Fc
Remark: another data set of the same source

Row | Binder | fold increased EC50 compared to unmodified Fab13.7
16 | B4 | 1.7 fold
17 | B5 | 2.6 fold

These binders were tested against T1, human TNFR1-Fc fusion protein (assay: ELISA on coated human TNFR1-Fc, scFv titrated, signal as Binding [%]).
Method: FIG. 9. Binding to and blockade of human TNFR1.
Microtiter plates were coated with 100 µl of the indicated protein (1 µg/ml in PBS, see Table 3.3) and incubated at 4° C. over night. The residual binding sites were blocked with 2% MPBS (skim milk in PBS, 200 µl per well) at room temperature for 2 hours and subsequently washed twice with PBS. 100 µl of the samples diluted in 2% MPBS were incubated at room temperature for 1 hour prior to the last incubation step with 100 µl of the HRP conjugated detection antibodies in 2% MPBS. In the case of competition experiments, both analyzed protein samples were prepared individually (either titrated or diluted to a single concentration) and mixed before they were applied to the plate. Bound protein was detected with 100 µl TMB substrate solution, the HRP-reaction was stopped by the addition of 50 µl 1 M H2SO4 and the absorption at the wavelength of 450 nm was measured using the Infinite microtiter plate reader (TECAN, Maennedorf, Switzerland). Between each incubation step and in advance of the detection, the plates were washed three times with PBST and twice with PBS.

Row | Binder | binding result
18 | B7 | binds
19 | B8 | binds
20 | B9 | binds
21 | B10 | binds
